Test results from patent publication US20150203577A1 (Chugai, published 2015).
Positions count from the first letter of the chain named.

T1: mouse FcγRIII (mouse, UniProt P08508 31-215)
T1 construct: also called mFcγRIII; mFcgRIII
T1 chain: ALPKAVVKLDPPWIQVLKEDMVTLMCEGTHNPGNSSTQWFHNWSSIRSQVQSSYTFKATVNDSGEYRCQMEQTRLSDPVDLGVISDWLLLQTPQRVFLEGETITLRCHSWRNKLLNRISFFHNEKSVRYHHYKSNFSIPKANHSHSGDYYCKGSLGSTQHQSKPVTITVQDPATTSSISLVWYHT

T2: mouse FcγRII (mouse, UniProt P08101 30-210)
T2 construct: also called mFcγRII; mFcgRII
T2 sequence: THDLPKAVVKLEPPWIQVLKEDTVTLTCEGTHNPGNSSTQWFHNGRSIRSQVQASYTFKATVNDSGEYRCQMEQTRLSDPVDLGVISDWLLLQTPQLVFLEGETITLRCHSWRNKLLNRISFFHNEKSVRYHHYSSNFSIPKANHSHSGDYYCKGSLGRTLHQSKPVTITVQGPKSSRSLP

T3: mouse FcγRII extracellular domain, C-terminally His-tagged (mouse, UniProt P08101 30-210)
T3 construct: the whole entry is named; also called mFcγRII; mFcgRII
T3 sequence: T2 sequence

T4: mouse FcγRIII extracellular domain, C-terminally His-tagged (mouse, UniProt P08508 31-215)
T4 construct: the whole entry is named; also called mFcγRIII; mFcgRIII
T4 chain: T1 chain

B1: H237-MB772/MRAL-k0 (antibody, mouse IgG1, kappa)
heavy: QVQLQESGPGLVKPSETLSLTCAVSGHSISHDHAWSWVRQPPGEGLEWIGFISYSGITNYNPSLQGRVTISRDNSKNTLYLQMNSLRAEDTAVYYCARSLARTTAMDYWGEGTLVTVSSAKTTPPSVYPLAPGSAAQTNSMVTLGCLVKGYFPEPVTVTWNSGSLSSGVHTFPAVLQSDLYTLSSSVTVPSSTWPSETVTCNVAHPASSTKVDKKIVPRDCGCKPCICEPNEVELVFIFPPKPKDVLTITLTPKVTCVVVDISKDDPEVQFSWFVDDVEVHTAQTQPREEQFNSTFRSVSELPIMHQDWLNGKEFKCRVNSAAFPAPINKTISKTKGRPKAPQVYTIPPPKEQMAKDKVSLTCMITDFFPEDITVEWQWNGQPAENYKNTQPIMDTDGSYFVYSKLNVQKSNWEAGNTFTCSVLHEGLHNHHTEKSLSHSPGK
light: not shown
notes: mouse IgG1 CH variant; copies: 2 + 2
B2: H237-MB832/MRAL-k0 (antibody, mouse IgG1, kappa)
heavy: B1 heavy with P327Y, N329Y
light: not shown
notes: as for B1
B3: H237-MB886/MRAL-k0 (antibody, mouse IgG1, kappa)
heavy: B1 heavy with V233E, L235S, N329E
light: not shown
notes: as for B1
B4: H237-MB885/MRAL-k0 (antibody, mouse IgG1, kappa)
heavy: B1 heavy with N231A, V233E, L235S, N329E
light: not shown
notes: as for B1
B5: H237-MB830/MRAL-k0 (antibody, mouse IgG1, kappa)
heavy: B1 heavy with P327F, N329Y
light: not shown
notes: as for B1
B6: H237-MB793/MRAL-k0 (antibody, mouse IgG1, kappa)
heavy: B1 heavy with E229Q, L235I, N329E
light: not shown
notes: as for B1
B7: H237-MB883/MRAL-k0 (antibody, mouse IgG1, kappa)
heavy: B1 heavy with N231A, V233E, E234S, N329E
light: not shown
notes: as for B1
B8: H237-MB884/MRAL-k0 (antibody, mouse IgG1, kappa)
heavy: B1 heavy with V233E, E234S, N329E
light: not shown
notes: as for B1
B9: H237-MB778/MRAL-k0 (antibody, mouse IgG1, kappa)
heavy: B1 heavy with N329E, S333K
light: not shown
notes: as for B1
B10: H237-MB781/MRAL-k0 (antibody, mouse IgG1, kappa)
heavy: B1 heavy with A326K, N329E
light: not shown
notes: as for B1
B11: H237-MB390/MRAL-k0 (antibody, mouse IgG1, kappa)
heavy: B1 heavy with L235D, N329E
light: not shown
notes: Template of the MB390 variants; copies: 2 + 2
B12: H237-MB397/MRAL-k0 (antibody, mouse IgG1, kappa)
heavy: B1 heavy with P230T, N231Y, L235D, N329E
light: not shown
notes: Template of the MB397 variants; copies: 2 + 2
B13: H237-MB446/MRAL-k0 (antibody, mouse IgG1, kappa)
heavy: B1 heavy with P230T, N231Y, L235D, S294L, N329E
light: not shown
notes: copies: 2 + 2
B14: H237-MB447/MRAL-k0 (antibody, mouse IgG1, kappa)
heavy: B1 heavy with P230T, N231Y, L235D, S294M, N329E
light: not shown
notes: copies: 2 + 2
B15: H237-MB445/MRAL-k0 (antibody, mouse IgG1, kappa)
heavy: B1 heavy with P230T, N231Y, L235D, F292T, N329E
light: not shown
notes: copies: 2 + 2
B16: H237-MB443/MRAL-k0 (antibody, mouse IgG1, kappa)
heavy: B1 heavy with P230T, N231Y, L235D, F292E, N329E
light: not shown
notes: copies: 2 + 2
B17: H237-MB441/MRAL-k0 (antibody, mouse IgG1, kappa)
heavy: B1 heavy with P230T, N231Y, L235D, A326K, N329E
light: not shown
notes: copies: 2 + 2
B18: H237-MB442/MRAL-k0 (antibody, mouse IgG1, kappa)
heavy: B1 heavy with P230T, N231Y, L235D, N329E, K330R
light: not shown
notes: copies: 2 + 2
B19: H237-MB444/MRAL-k0 (antibody, mouse IgG1, kappa)
heavy: B1 heavy with P230T, N231Y, L235D, F292N, N329E
light: not shown
notes: copies: 2 + 2
B20: H237-MB439/MRAL-k0 (antibody, mouse IgG1, kappa)
heavy: B1 heavy with P230T, N231Y, L235D, S263E, N329E
light: not shown
notes: copies: 2 + 2
B21: H237-MB440/MRAL-k0 (antibody, mouse IgG1, kappa)
heavy: B1 heavy with P230T, N231Y, L235D, P267L, N329E
light: not shown
notes: copies: 2 + 2

Target: T1, mouse FcγRIII
Assay: SPR (Biacore), antibody captured on Protein L, mFcγR as analyte

Binder | Kd | relative mFcγRIII-binding activity (mIgG1 = 1)
B1 | 3890 nM | 0.1 fold
B2 | 3050 nM | 0.12 fold
B3 | 7220 nM | 0.08 fold
B4 | 4350 nM | 0.13 fold
B5 | 3380 nM | 0.1 fold
B6 | 5500 nM | 0.07 fold
B7 | 4960 nM | 0.11 fold
B8 | 5910 nM | 0.09 fold
B9 | 2540 nM | 0.16 fold
B10 | 2120 nM | 0.19 fold

target: T2, mouse FcγRII; assay: as above

Binder | Kd | relative mFcγRII-binding activity (mIgG1 = 1)
B1 | 60.5 nM | 4.07 fold
B2 | 40.4 nM | 5.16 fold
B3 | 246 nM | 1.47 fold
B4 | 111 nM | 3.29 fold
B5 | 43.6 nM | 4.78 fold
B6 | 179 nM | 1.37 fold
B7 | 164 nM | 2.21 fold
B8 | 148 nM | 2.46 fold
B9 | 34.2 nM | 7.21 fold
B10 | 40.5 nM | 6.08 fold

target: T3, mouse FcγRII extracellular domain, …; assay: SPR Biacore T200, KD ratio
Excerpt: (§1) The antibody H chain variable region used was the variable region H237 (SEQ ID NO: 1) of the H chain VH3-IgG1 of the anti-IL-6 receptor antibody Fv4-IgG1 described in WO2009/125825. The antibody L chain commonly used was the L chain MRAL-k0 (SEQ ID NO: 2) of the anti-IL-6 receptor antibody tocilizumab. […] The resulting variant groups were designated as MB397 variants and MB390 variants, respectively. These variants were expressed and purified by the method of Reference Example 1 and evaluated for their binding to mFcγRII and mFcγRIII by the method of Reference Example 2 using Biacore T200.
(§2) Each altered antibody was analyzed for its interaction with each Fcγ receptor prepared above using Biacore T100 (GE Healthcare Japan Corp.), Biacore T200 (GE Healthcare Japan Corp.), Biacore A100, or Biacore 4000. The running buffer used was HBS-EP+ (GE Healthcare Japan Corp.). The assay temperature was set to 25° C. The sensor chips used were chips prepared by immobilizing Protein L (ACTIGEN or BioVision) onto Series S Sensor Chip CM5 (GE Healthcare Japan Corp.) or Series S Sensor Chip CM4 (GE Healthcare Japan Corp.) by the amine coupling method.
(§3) In order to calculate the KD value of each altered antibody for FcγR, kinetic analysis was conducted according to the following method: first, the antibody of interest was captured onto any of these chips and allowed to interact with mFcγR diluted with a running buffer. For the obtained sensorgram, the assay results were globally fit into the 1:1 Langmuir binding model using Biacore Evaluation Software to calculate an association rate constant ka (L/mol/s) and a dissociation rate constant kd (1/s). From these values, the dissociation constant KD (mol/L) was calculated.

Binder | relative mFcγRII-binding activity (MB390 = 1) | relative mFcγRII-binding activity (mIgG1 = 1) | relative mFcγRII-binding activity (MB397 = 1)
B11 | 1 fold | 522 fold | –
B12 | – | 555 fold | 1 fold
B13 | – | 1360 fold | 2.45 fold
B14 | – | 608 fold | 1.1 fold
B15 | – | 220 fold | 0.4 fold
B16 | – | 243 fold | 0.44 fold
B17 | – | 39.7 fold | 0.07 fold
B18 | – | 884 fold | 1.6 fold
B19 | – | 231 fold | 0.42 fold
B20 | – | 39.5 fold | 0.07 fold
B21 | – | 120 fold | 0.22 fold

Target: T4, mouse FcγRIII extracellular domain, …
Assay: SPR Biacore T200, KD ratio
Excerpt: as §1, §2, §3

Binder | relative mFcγRIII-binding activity (MB390 = 1) | relative mFcγRIII-binding activity (mIgG1 = 1) | relative mFcγRIII-binding activity (MB397 = 1)
B11 | 1 fold | 11.9 fold | –
B12 | – | 19.3 fold | 1 fold
B13 | – | 63.7 fold | 3.3 fold
B14 | – | 31.4 fold | 1.63 fold
B15 | – | 13.2 fold | 0.68 fold
B16 | – | 15.3 fold | 0.79 fold
B17 | – | 4.1 fold | 0.21 fold
B18 | – | 26.9 fold | 1.39 fold
B19 | – | 12.9 fold | 0.67 fold
B20 | – | 4.5 fold | 0.23 fold
B21 | – | 6.9 fold | 0.36 fold
